Experimental data taken from article PMC2990340.

Biological target: T1, CsdE-myc-His6 (E. coli K12 MG1655), P0AGF2
T1 chain: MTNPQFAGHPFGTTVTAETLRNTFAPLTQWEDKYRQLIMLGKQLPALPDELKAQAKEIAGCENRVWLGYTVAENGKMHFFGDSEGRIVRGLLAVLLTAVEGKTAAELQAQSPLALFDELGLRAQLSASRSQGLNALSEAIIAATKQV
Test: affinity purification with mass spectrometry
Details: remark: other sources report otherwise

B1: CsdE-myc-His6, P0AGF2 1-147 (natural protein)
chain: T1 chain
Binder B1 has a stoichiometry N of 2.
